According to paper PMC9482650, “Quantitative fragmentomics allow affinity mapping of interactomes” (Nature Communications, 2022):
Values belong to the binder of their own block, whether it stands above or below them.

Legend:
Experiment in all cases: holdup assay
Set-up in all cases: key: below the threshold = too weak to quantify, mostly under pKd 3.1 to 4
[1] = target: LNX1_2, Q8TBB1
[2] = target: T1, HTRA3, P83110
T1 sequence (P83110 354-453, limits assumed, looked up): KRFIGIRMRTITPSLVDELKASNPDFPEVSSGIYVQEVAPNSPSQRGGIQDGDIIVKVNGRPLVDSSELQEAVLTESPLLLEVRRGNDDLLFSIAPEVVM

[3] = target: T2, RAPGEF6, Q8TEU7
T2 sequence (Q8TEU7 525-625, limits assumed, looked up): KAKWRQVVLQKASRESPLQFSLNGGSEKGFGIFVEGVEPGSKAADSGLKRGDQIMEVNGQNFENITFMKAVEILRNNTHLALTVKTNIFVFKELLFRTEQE

[4] = target: T3, NHERF3_1, Q5T2W1
T3 sequence (Q5T2W1 4-100, limits assumed, looked up): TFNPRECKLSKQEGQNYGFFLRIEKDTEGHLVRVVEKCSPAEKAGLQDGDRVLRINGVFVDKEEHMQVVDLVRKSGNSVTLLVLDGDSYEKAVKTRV

[5] = target: T4, MPDZ_10, O75970
T4 sequence (O75970 1624-1722, limits assumed, looked up): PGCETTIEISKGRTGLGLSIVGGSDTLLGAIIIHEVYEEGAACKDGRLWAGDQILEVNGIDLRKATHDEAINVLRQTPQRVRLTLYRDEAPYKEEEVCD

[6] = target: Inadl_9, Q8NI35
Sequence of Inadl_9, Q8NI35 (Q8NI35 1530-1615): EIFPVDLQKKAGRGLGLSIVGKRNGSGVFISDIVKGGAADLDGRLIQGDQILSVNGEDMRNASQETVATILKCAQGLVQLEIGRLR

[7] = target: T5, NHERF3_3, Q5T2W1
T5 sequence (Q5T2W1 238-333, limits assumed, looked up): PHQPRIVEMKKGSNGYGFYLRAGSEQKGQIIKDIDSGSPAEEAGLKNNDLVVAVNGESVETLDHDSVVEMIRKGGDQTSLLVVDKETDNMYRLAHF

[8] = target: PDLIM1, O00151
Sequence of PDLIM1, O00151 (O00151 1-87): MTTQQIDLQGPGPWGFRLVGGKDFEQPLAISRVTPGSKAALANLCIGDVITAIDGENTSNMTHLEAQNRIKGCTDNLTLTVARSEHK

[9] = target: T6, DLG3_1, Q92796
T6 sequence (Q92796 125-227, limits assumed, looked up): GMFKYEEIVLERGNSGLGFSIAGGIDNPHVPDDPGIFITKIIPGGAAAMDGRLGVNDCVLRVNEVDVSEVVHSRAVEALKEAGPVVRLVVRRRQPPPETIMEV

[10] = target: PICK1, Q9NRD5
Sequence of PICK1, Q9NRD5 (Q9NRD5 17-115): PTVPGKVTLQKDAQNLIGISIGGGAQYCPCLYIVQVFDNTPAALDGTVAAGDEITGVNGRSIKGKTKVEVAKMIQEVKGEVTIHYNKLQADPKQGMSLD

[11] = target: NOS1, P29475
Sequence of NOS1, P29475 (P29475 9-101): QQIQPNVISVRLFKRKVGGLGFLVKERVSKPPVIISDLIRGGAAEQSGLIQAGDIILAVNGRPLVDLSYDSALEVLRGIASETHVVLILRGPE

[12] = target: NHERF4_1, Q86UT5-2
Sequence of NHERF4_1, Q86UT5-2 (Q86UT5 other isoform, or with tags, fused parts or gaps): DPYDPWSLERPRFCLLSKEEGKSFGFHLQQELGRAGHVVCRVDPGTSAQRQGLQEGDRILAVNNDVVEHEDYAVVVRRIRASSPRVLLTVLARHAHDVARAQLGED

[13] = target: T7, TJP3_3, O95049
T7 sequence (O95049 375-456, limits assumed, looked up): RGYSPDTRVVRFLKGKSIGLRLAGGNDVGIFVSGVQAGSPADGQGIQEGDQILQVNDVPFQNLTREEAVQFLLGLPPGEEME

[14] = target: DLG1_3, Q12959
Sequence of DLG1_3, Q12959 (Q12959 457-571): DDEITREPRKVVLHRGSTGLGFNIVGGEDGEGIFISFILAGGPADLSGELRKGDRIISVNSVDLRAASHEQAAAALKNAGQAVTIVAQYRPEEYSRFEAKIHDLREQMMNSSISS

[15] = target: DLG1_2, Q12959
Sequence of DLG1_2, Q12959 (Q12959 314-412): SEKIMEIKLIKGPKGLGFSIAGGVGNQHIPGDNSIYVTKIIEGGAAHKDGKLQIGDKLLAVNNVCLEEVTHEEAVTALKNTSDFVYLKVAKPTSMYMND

[16] = target: T8, SNTA1, Q13424
T8 sequence (Q13424 82-180, limits assumed, looked up): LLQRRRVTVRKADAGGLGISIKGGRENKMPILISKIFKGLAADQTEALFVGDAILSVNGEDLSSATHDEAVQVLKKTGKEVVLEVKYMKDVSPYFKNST

[17] = target: MAGI1_2, Q96QZ7
Sequence of MAGI1_2, Q96QZ7 (Q96QZ7 456-580): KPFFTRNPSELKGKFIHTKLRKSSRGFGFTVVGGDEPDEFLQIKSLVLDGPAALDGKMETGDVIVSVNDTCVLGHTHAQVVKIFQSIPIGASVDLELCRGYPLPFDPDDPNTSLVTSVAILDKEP

[18] = target: GORASP1, Q9BQQ3
Sequence of GORASP1, Q9BQQ3 (Q9BQQ3 1-208): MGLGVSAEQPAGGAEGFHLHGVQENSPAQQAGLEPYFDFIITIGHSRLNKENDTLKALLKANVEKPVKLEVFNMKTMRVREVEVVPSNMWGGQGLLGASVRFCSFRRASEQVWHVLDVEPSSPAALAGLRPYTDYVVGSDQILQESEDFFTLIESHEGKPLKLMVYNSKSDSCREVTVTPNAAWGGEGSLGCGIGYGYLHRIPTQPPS

[19] = target: LDB3, O75112
Sequence of LDB3, O75112 (O75112 1-94): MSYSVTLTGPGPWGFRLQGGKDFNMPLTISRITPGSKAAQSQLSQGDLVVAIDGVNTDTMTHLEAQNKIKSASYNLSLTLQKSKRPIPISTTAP

[20] = target: T9, LNX2_2, Q8N448
T9 sequence (Q8N448 334-432, limits assumed, looked up): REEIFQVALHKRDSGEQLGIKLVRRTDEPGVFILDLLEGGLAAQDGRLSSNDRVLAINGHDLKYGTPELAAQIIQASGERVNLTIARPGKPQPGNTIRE

[21] = target: T10, MPP6, Q9NZW5
T10 sequence (Q9NZW5 125-219, limits assumed, looked up): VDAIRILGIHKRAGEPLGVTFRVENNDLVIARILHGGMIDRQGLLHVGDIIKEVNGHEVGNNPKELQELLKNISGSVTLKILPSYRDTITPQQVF

[22] = target: T11, APBA2_1, Q99767
T11 sequence (Q99767 563-664, limits assumed, looked up): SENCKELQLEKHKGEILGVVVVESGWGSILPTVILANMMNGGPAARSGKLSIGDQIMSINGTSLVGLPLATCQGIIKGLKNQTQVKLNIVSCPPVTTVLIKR

[23] = target: AHNAK1, Q09666
Sequence of AHNAK1, Q09666 (Q09666 4-100): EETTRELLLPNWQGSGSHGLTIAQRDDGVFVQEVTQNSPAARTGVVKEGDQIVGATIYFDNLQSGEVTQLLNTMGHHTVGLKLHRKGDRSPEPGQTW

[24] = target: SCRIB_3, Q14160
Sequence of SCRIB_3, Q14160 (Q14160 999-1103): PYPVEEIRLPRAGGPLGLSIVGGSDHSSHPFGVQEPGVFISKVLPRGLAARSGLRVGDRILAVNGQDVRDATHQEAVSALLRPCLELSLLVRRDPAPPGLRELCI

[25] = target: T12, DFNB31_3, Q9P202
T12 sequence (Q9P202 811-907, limits assumed, looked up): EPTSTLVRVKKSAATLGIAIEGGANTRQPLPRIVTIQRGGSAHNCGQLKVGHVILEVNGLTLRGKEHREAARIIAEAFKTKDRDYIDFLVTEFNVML

[26] = target: Inadl_2, Q8NI35
Sequence of Inadl_2, Q8NI35 (Q8NI35 238-335): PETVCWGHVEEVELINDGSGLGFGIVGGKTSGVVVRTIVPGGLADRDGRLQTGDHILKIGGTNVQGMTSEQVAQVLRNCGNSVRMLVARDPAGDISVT

[27] = plain residues with an end cap or a label only (N-terminal biotin on a linker: ado-ado)
[28] = plain residues with an end cap or a label only (N-terminal biotin on a linker: ahx)

Sequence of LNX1_2, Q8TBB1 (Q8TBB1 371-470): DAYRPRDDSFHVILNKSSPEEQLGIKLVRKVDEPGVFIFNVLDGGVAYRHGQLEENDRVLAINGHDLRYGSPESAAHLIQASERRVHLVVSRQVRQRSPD

pKd [1, 27]: below the threshold
pKd [2, 27]: 4.17
pKd [3, 27]: below the threshold
pKd [4, 27]: 4.55
pKd [5, 27]: 3.51
pKd [6, 27]: 3.93
pKd [7, 27]: below the threshold
pKd [8, 27]: below the threshold
pKd [9, 27]: below the threshold
pKd [10, 27]: below the threshold
pKd [11, 27]: 4.45
pKd [12, 27]: 3.66
pKd [13, 27]: 3.73
pKd [14, 27]: 3.67
pKd [15, 27]: below the threshold
pKd [16, 27]: below the threshold
pKd [17, 27]: below the threshold
pKd [18, 27]: below the threshold
pKd [19, 27]: below the threshold
pKd [20, 27]: 4.04
pKd [21, 27]: below the threshold
pKd [22, 27]: below the threshold
pKd [23, 27]: below the threshold
pKd [24, 27]: below the threshold
pKd [25, 27]: 4.06
pKd [26, 27]: below the threshold
Binder: GTGYDRKDYV [CLDN3, O15551]

pKd [1, 27]: below the threshold
pKd [2, 27]: 4.37
pKd [3, 27]: below the threshold
pKd [4, 27]: 4.08
pKd [5, 27]: below the threshold
pKd [6, 27]: below the threshold
pKd [7, 27]: below the threshold
pKd [8, 27]: below the threshold
pKd [9, 27]: below the threshold
pKd [10, 27]: 4.01
pKd [11, 27]: below the threshold
pKd [12, 27]: below the threshold
pKd [13, 27]: below the threshold
pKd [14, 27]: 3.57
pKd [15, 27]: 3.67
pKd [16, 27]: below the threshold
pKd [17, 27]: below the threshold
pKd [18, 27]: below the threshold
pKd [19, 27]: below the threshold
pKd [20, 27]: 3.8
pKd [21, 27]: below the threshold
pKd [22, 27]: below the threshold
pKd [23, 27]: below the threshold
pKd [24, 27]: 4.29
pKd [25, 27]: 4.02
pKd [26, 27]: 4.28
Binder: RSSGGDDFWF [KCNV1, Q6PIU1]

pKd [1, 27]: 3.6
pKd [2, 27]: below the threshold
pKd [3, 27]: below the threshold
pKd [4, 27]: 3.7
pKd [5, 27]: 3.49
pKd [6, 27]: 4.03
pKd [7, 27]: below the threshold
pKd [8, 27]: 3.81
pKd [9, 27]: 4.03
pKd [10, 27]: 4.21
pKd [11, 27]: 4.05
pKd [12, 27]: 3.71
pKd [13, 27]: 3.48
pKd [14, 27]: 3.75
pKd [15, 27]: 4.84
pKd [16, 27]: 4.02
pKd [17, 27]: 3.95
pKd [18, 27]: below the threshold
pKd [19, 27]: below the threshold
pKd [20, 27]: 4.22
pKd [21, 27]: below the threshold
pKd [22, 27]: below the threshold
pKd [23, 27]: below the threshold
pKd [24, 27]: 4.36
pKd [25, 27]: below the threshold
pKd [26, 27]: below the threshold
Binder: VLYPREGTEV [FOXI1, Q12951]

pKd [1, 27]: 3.47
pKd [2, 27]: below the threshold
pKd [3, 27]: below the threshold
pKd [4, 27]: 4.33
pKd [5, 27]: below the threshold
pKd [6, 27]: 3.66
pKd [7, 27]: 3.87
pKd [8, 27]: below the threshold
pKd [9, 27]: 3.61
pKd [10, 27]: below the threshold
pKd [11, 27]: 3.66
pKd [12, 27]: 3.62
pKd [13, 27]: below the threshold
pKd [14, 27]: below the threshold
pKd [15, 27]: 4.48
pKd [16, 27]: 4.39
pKd [17, 27]: below the threshold
pKd [18, 27]: 4.07
pKd [19, 27]: below the threshold
pKd [20, 27]: 5.15
pKd [21, 27]: below the threshold
pKd [22, 27]: below the threshold
pKd [23, 27]: below the threshold
pKd [24, 27]: below the threshold
pKd [25, 27]: below the threshold
pKd [26, 27]: below the threshold
Binder: RDPPAEWTRV [PTPN18, Q99952]

pKd [1, 28]: below the threshold
pKd [2, 28]: below the threshold
pKd [3, 28]: below the threshold
pKd [4, 28]: below the threshold
pKd [5, 28]: 3.9
pKd [6, 28]: below the threshold
pKd [7, 28]: below the threshold
pKd [8, 28]: below the threshold
pKd [9, 28]: below the threshold
pKd [10, 28]: below the threshold
pKd [11, 28]: below the threshold
pKd [12, 28]: 3.62
pKd [13, 28]: below the threshold
pKd [14, 28]: below the threshold
pKd [15, 28]: below the threshold
pKd [16, 28]: below the threshold
pKd [17, 28]: below the threshold
pKd [18, 28]: below the threshold
pKd [19, 28]: below the threshold
pKd [20, 28]: below the threshold
pKd [21, 28]: below the threshold
pKd [22, 28]: below the threshold
pKd [23, 28]: below the threshold
pKd [24, 28]: below the threshold
pKd [25, 28]: below the threshold
pKd [26, 28]: below the threshold
Binder: TESNLQTSSC [CGN, Q9P2M7]
